Target: Purified recombinant HIV gp120, biotinylated (HIV) (UniProt P04578)
Test: SPR

Substance: soluble recombinant human DC-SIGN extracellular domain (from UniProt Q9NNX6 59-404) (domain or fragment)
- percent less binding in 20 mM glucose than in 5 mM glucose: 33%

Reference: publication PMC3088832
